Assay results taken from patent US20030176665A1.
Read-outs that look alike come from different tables or passages of the source.

Experiments:
gp41 (535-681)-His6 [1] = test system: gp41 (535-681)-His6
gp41 (535-681)-His6 [2] = biological target: gp41 (535-681)-His6; remark: listed apart in the source

C-terminally truncated SlyD from E. coli
aggregation of gp41 after shift to neutral pH (UV spectra) (gp41 (535-681)-His6 [1]): Comparable data have been obtained with ... a C-terminally truncated SlyD from E. coli

B1: trigger factor from Thermatoga maritima (protein)
chain: MEVKELERDKNRVVLEYVFGAEEIAQAEDKAVRYLNQRVEIPGFRKGRIPKNVLKMKLGEEFQEYTLDFLMDLIPDTLKDRKLILSPIVTERELKDVTARVVVEVHEEPEVRIGDISKIEVEKVDEEKVLEKYVERRIEDLRESHALLEPKEGPAEAGDLVRVNMEVYNEEGKKLTSREYEYVISEDEDRPFVKDLVGKKKGDVVEIEREYEGKKYTYKLEVEEVYKRTLPEIGDELAKSVNNEFETLEQLKESLKKEGKEIYDVEMKESMREQLLEKLPEIVEIEISDRTLEILVNEAINRLKREGRYEQIVSSYESEEKFREELKERILDDIKRDRVIEVLAQEKGISVNDEELEKEAEELAPFWGISPDRAKSLVKARQDLREELRWAILKRKVLDLLLQEVKVKVVEPKGEGDDSEGKEDN
aggregation of gp41 after shift to neutral pH (UV spectra) (gp41 (535-681)-His6 [2]): Comparable data have been obtained with trigger factor from Thermatoga maritima

B2: FkpA from E. coli (mature FkpA) (protein)
chain: AEAAKPATAADSKAAFKNDDQKSAYALGASLGRYMENSLKEQEKLGIKLDKDQLIAGVQDAFADKSKLSDQEIEQTLQAFEARVKSSAQAKMEKDAADNEAKGKEYREKFAKEKGVKTSSTGLVYQVVEAGKGEAPKDSDTVVVNYKGTLIDGKEFDNSYTRGEPLSFRLDGVIPGWTEGLKNIKKGGKIKLVIPPELAYGKAGVPGIPPNSTLVFDVELLDVKPAPKADAKPEADAKAADSAKK
aggregation of gp41 after shift from about pH 3.5 to pH 7.4 (UV spectra after 1 and 10 minutes; 1 µM gp41 with 2 µM or 4 µM FkpA) (gp41 (535-681)-His6 [2]): FkpA substantially reduces the aggregation of gp41 in a dose-dependent fashion
suppression of aggregation (stray light in UV spectra) by a two-fold and a four-fold molar excess of the chaperone (gp41 (535-681)-His6 [2]): there is compelling spectroscopic evidence that FkpA efficiently solubilizes the gp41 ectodomain in a dose-dependent fashion
